Publication PMC5201196

Molecular target: protein G´e (protein G prime e, extended)
Assay: MST

IgG (antibody)
Kd: 9.4 nM
